The values that follow are results of earlier work, collected in article PMC5680199.

A word on the Kd: it is the concentration at which binding is half-saturated.

In this data set the target is human thrombin (human) (UniProt P00734+P00734). Briefly: not stated (cited). The conditions noted are these: phi29 DNA polymerase buffer adjusted to 10 mM K+ (optimum), ThT-HE 5 uM, 37 C, 2 h; pH not given in material.

For the substance 29-mer thrombin-binding aptamer (TBA), the Kd is 0.5 nM.
